According to patent CN106749656A (UNIV ZHENGZHOU NORMAL, dated 2017):

Assays:
小鼠重组RCN3蛋白 [1] = target: T1, 小鼠重组RCN3蛋白 (mouse, UniProt Q8BH97 21-328, limits assumed); assay: phage ELISA, plate coated with 3 μg/mL mouse RCN3 (GST and BSA as controls), HRP anti-M13
T1 construct: Recombinant mouse RCN3 used as coating antigen and in the Western blot; GST and BSA were run as control antigens; also called 小鼠RCN3蛋白; 重组小鼠RCN3蛋白
T1 sequence (looked up): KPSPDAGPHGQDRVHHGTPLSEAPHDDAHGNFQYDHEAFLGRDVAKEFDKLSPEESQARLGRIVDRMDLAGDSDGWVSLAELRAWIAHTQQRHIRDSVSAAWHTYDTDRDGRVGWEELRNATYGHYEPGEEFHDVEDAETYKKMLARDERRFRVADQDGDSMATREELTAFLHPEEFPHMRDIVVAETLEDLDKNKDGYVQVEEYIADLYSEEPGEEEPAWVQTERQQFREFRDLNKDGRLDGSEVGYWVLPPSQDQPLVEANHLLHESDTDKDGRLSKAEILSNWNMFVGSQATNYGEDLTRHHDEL

小鼠重组RCN3蛋白 [2] = target: T1, 小鼠重组RCN3蛋白; assay: ELISA, plate coated with 3 μg/mL mouse RCN3 (GST and BSA as controls), ScFv-Fc as first antibody, HRP goat anti-human IgG

B1: 全人源抗小鼠RCN3蛋白单链ScFv抗体的噬菌体克隆 (scFv)
scFv: ELQMTQSPSSLSASVGDRVTITCQASQDITYHLNWYQQKPGKAPKLLIYDASNLVTGVPSRFSGSGSGTDFTVTISSLQPEDFATYYCQHYYNRPPTFGQGTRLEIKGGSSRSSSSGGGGSGGGGQVQLVQSGGGVVQPGRSLRLSCAASGFTFSSYGMHWVRQAPGKGLEWVAVISYDGSNKYYADSVKGRFTISRDNSKNTLYLQMNSLRAEDTAVYYCARDLGTHAFDIWGQGTMVTVSS
notes: The scFv stood on the surface of M13 phage in the assay; also called 单克隆噬菌体
Does B1 bind (小鼠重组RCN3蛋白 [1])?
Result: binds

B2: 全人源抗小鼠RCN3带有Fc标签的单链ScFv抗体 (Fc fusion)
scFv: ELQMTQSPSSLSASVGDRVTITCQASQDITYHLNWYQQKPGKAPKLLIYDASNLVTGVPSRFSGSGSGTDFTVTISSLQPEDFATYYCQHYYNRPPTFGQGTRLEIKGGSSRSSSSGGGGSGGGGQVQLVQSGGGVVQPGRSLRLSCAASGFTFSSYGMHWVRQAPGKGLEWVAVISYDGSNKYYADSVKGRFTISRDNSKNTLYLQMNSLRAEDTAVYYCARDLGTHAFDIWGQGTMVTVSS
notes: also called ScFv-Fc抗体; 抗小鼠RCN3蛋白ScFv-Fc抗体; not shown: Fc tag from the eukaryotic expression vector pFUSERTL1
Does B2 bind (小鼠重组RCN3蛋白 [2])?
Result: binds
